± gives the standard error.
B1: library; numbered along this chain (parent)
chain: MATDAALRRLLRLHRTEIAVAVDSAFPLLHALADHDVVPEDKFQETLHLKEKEGCPQAFHALLSWLLTQDSTAILDFWRVLFKDYNLERYGRLQPILDSFPKDVDLSQPRKGRKPPAVPKALVPPPRLPTKRKASEEARAAAPAALTPRGTASPGSQLKAKPPKKPESSAEQQRLPLGNGIQTMSASVQRAVAMSSGDVPGARGAVEGILIQQVFESGGSKKCIQVGGEFYTPSKFEDSGSGKNKARSSSGPKPLVRAKGAQGAAPGGGEARLGQQGSVPAPLALPSDPQLHQKNEDECAVCRDGGELICCDGCPRAFHLACLSPPLREIPSGTWRCSSCLQATVQEVQPRAEEPRPQEPPVETPLPPGLRSAGEEVRGPPGEPLAGMDTTLVYKHLPAPPSAAPLPGLDSSALHPLLCVGPEGQQNLAPGARCGVCGDGTDVLRCTHCAAAFHWRCHFPAGTSRPGTGLRCRSCSGDVTPAPVEGVLAPSPARLAPGPAKDDTASHEPALHRDDLESLLSEHTFDGILQWAIQSMARPAAPFPS

Variants of: B1
Test: AIRE transcriptional activation functional score (insulin promoter-GFP; nonsense median 0, synonymous median 1) (normalised score); higher = higher AIRE activity (more reporter activation)
Conditions: with insulin promoter-GFP reporter in HEK293
Description: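 Deep mutational scan of full-length human AIRE (codon-optimized cDNA, DT-POPCode NNN libraries over three regions) integrated at a Bxb1 landing pad in HEK293 cells carrying an insulin core promoter-GFP reporter at a Flp-In site. Cells were sorted for the top 10% GFP about 14 days after transfection. Variant frequency log-ratios (select vs non-select, TileSeq) were rescaled so that the nonsense median is 0 and the synonymous median is 1, then averaged over biological replicates.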

Row | Variant | AIRE transcriptional activation functional score
1 | V80H | -0.971 ± 1.8
2 | R456P | 1.1 ± 0.16
3 | F26G | -0.298 ± 0.2
4 | A451L | 0.76 ± 0.37
5 | A451G | 0.686 ± 0.21
6 | G218R | 1.13 ± 0.25
7 | E359R | 1.02 ± 0.24
8 | L520G | 0.375 ± 0.15
9 | Q425E | 0.587 ± 0.23
10 | Q425I | 1.07 ± 0.33
11 | V393T | 1.14 ± 0.18
12 | G498N | 0.869 ± 0.32
13 | P416W | 1.5 ± 0.089
14 | P280K | 0.978 ± 0.09
15 | E136R | -0.203 ± 0.43
16 | H415M | -0.327 ± 0.28
17 | P116N | 2.06 ± 0.3
18 | R149L | 1.22 ± 0.58
19 | R149M | 0.41 ± 0.38
20 | M388K | 1.05 ± 0.31
21 | M388W | 1.46 ± 0.11
22 | P381A | 0.912 ± 0.28
23 | L106Y | 1.27 ± 0.37
24 | G201E | 0.791 ± 0.087

Row | Variant | AIRE transcriptional activation functional score
25 | S153C | 1.2 ± 0.24
26 | S153Y | 0.691 ± 0.65
27 | D34Q | -0.011 ± 0.19
28 | D34M | -1.08 ± 0.3
29 | P126I | 0.105 ± 0.14
30 | P126Q | -0.177 ± 0.055
31 | P39F | 1.34 ± 0.45
32 | I528E | 0.137 ± 0.15
33 | E307P | 0.172 ± 0.45
34 | Q172H | 1.81 ± 0.24
35 | Q172Y | 1.7 ± 0.64
36 | G408D | 1.2 ± 0.21
37 | A399E | 0.88 ± 0.39
38 | A399S | 0.793 ± 0.36
39 | F453E | -0.452 ± 0.21
40 | L385V | 0.955 ± 0.15
41 | L122R | 0.83 ± 0.43
42 | L146V | 0.912 ± 0.45
43 | L146K | 0.924 ± 0.47
44 | L146Y | 1.24 ± 0.09
45 | R110I | 1.21 ± 0.57
46 | A300L | 0.917 ± 0.29
47 | Q358Y | 1.04 ± 0.092
48 | Q358K | 1.02 ± 0.087

Row | Variant | AIRE transcriptional activation functional score
49 | P95W | 0.55 ± 0.12
50 | Q108F | 0.53 ± 0.066
51 | V345G | 1.12 ± 0.068
52 | V345F | 1.36 ± 0.035
53 | P360D | 0.792 ± 0.048
54 | S535Q | -0.0138 ± 0.2
55 | S287I | 1.07 ± 0.22
56 | S287Q | 1.24 ± 0.38
57 | E229N | 0.433 ± 0.24
58 | A403Y | 0.507 ± 0.33
59 | A403L | 1.29 ± 0.44
60 | F525T | -0.259 ± 0.35
61 | W455C | 1.09 ± 0.14
62 | E376K | 1.15 ± 0.064
63 | G421C | 1.58 ± 0.19
64 | G421K | 0.558 ± 0.099
65 | P27M | -0.268 ± 0.094
66 | Q189C | 0.0413 ± 0.066
67 | M536L | 1.04 ± 0.11
68 | G54A | -0.977 ± 0.69
69 | H448D | 0.718 ± 0.11
70 | A496Y | 1.07 ± 0.38
71 | A496F | 1.07 ± 0.25
72 | L323I | 0.984 ± 0.34

Row | Variant | AIRE transcriptional activation functional score
73 | L323R | 1.15 ± 0.18
74 | P166C | 1.43 ± 0.72
75 | V377F | 1.15 ± 0.11
76 | T16Q | -0.475 ± 0.078
77 | T480L | 1 ± 0.23
78 | T441E | 0.676 ± 0.27
79 | K243I | 1.02 ± 0.36
80 | S332G | 1.09 ± 0.12
81 | S332V | 1.3 ± 0.11
82 | S332N | 1.56 ± 0.1
83 | T68R | 0.304 ± 0.66
84 | G112N | 0.726 ± 0.29
85 | A532V | 0.836 ± 0.14
86 | P154C | 0.692 ± 0.45
87 | P154W | 1.13 ± 0.17
88 | P154G | 0.75 ± 0.43
89 | P154T | 1.35 ± 0.7
90 | S249G | 1.22 ± 0.26
91 | S249H | 0.402 ± 0.24
92 | S339D | 0.853 ± 0.26
93 | A540I | 0.978 ± 0.18
94 | V256N | 0.685 ± 0.49
95 | V256H | 0.851 ± 0.23
96 | L519I | 0.439 ± 0.1

Row | Variant | AIRE transcriptional activation functional score
97 | L519D | 0.255 ± 0.11
98 | L519Q | 0.698 ± 0.32
99 | S521F | 0.695 ± 0.12
100 | R132S | 0.00923 ± 0.41
101 | R132A | 0.179 ± 0.53
102 | E237W | 0.832 ± 0.035
103 | A19R | 0.348 ± 0.55
104 | A19G | 0.563 ± 0.33
105 | T391K | 0.54 ± 0.28
106 | T391G | 0.941 ± 0.15
107 | R113Q | 1.18 ± 0.28
108 | R113P | 0.537 ± 0.78
109 | I18D | 0.751 ± 0.068
110 | R89M | -2.04 ± 0.26
111 | P331V | 1.21 ± 0.22
112 | H35M | -0.719 ± 0.084
113 | H35I | 0.107 ± 0.2
114 | T147N | 1.26 ± 0.56
115 | E270W | 1.36 ± 0.024
116 | A271W | 1.6 ± 0.061
117 | A271I | 1.1 ± 0.18
118 | D503T | 1.41 ± 0.089
119 | I211D | 0.837 ± 0.1
120 | G274Y | 1.07 ± 0.028

Row | Variant | AIRE transcriptional activation functional score
121 | L11P | 0.466 ± 0.29
122 | L470N | 1.06 ± 0.046
123 | A145E | 0.0573 ± 0.43
124 | G269A | 1.39 ± 0.3
125 | G269F | 1.42 ± 0.13
126 | L255R | 0.419 ± 0.21
127 | D41S | 0.72 ± 0.4
128 | L49R | 1.04 ± 0.72
129 | H458T | 1.16 ± 0.05
130 | P56V | 0.829 ± 0.67
131 | Q346N | 0.737 ± 0.25
132 | V226A | 0.677 ± 0.31
133 | Q262V | 0.657 ± 0.24
134 | G477R | 0.787 ± 0.29
135 | G477C | 0.926 ± 0.17
136 | G477P | 1.46 ± 0.14
137 | P380E | 0.934 ± 0.17
138 | L75Q | 0.0287 ± 0.28
139 | H60M | 0.414 ± 0.035
140 | A284N | 0.828 ± 0.039
141 | A284K | 0.964 ± 0.18
142 | K161D | 1.13 ± 0.7
143 | K161H | 0.866 ± 0.53
144 | N427T | 1.07 ± 0.11

Row | Variant | AIRE transcriptional activation functional score
145 | N427V | 1.06 ± 0.18
146 | N427A | 1.33 ± 0.17
147 | D288E | 0.565 ± 0.14
148 | C302E | 0.654 ± 0.032
149 | C302Y | 0.467 ± 0.065
150 | C302Q | 0.705 ± 0.061
151 | L406K | 0.516 ± 0.18
152 | R9K | -2.37 ± 0.13
153 | A5I | 1.2 ± 0.62
154 | K50E | 0.64 ± 0.64
155 | A450Q | 1.13 ± 0.17
156 | T364Q | 0.914 ± 0.26
157 | R465C | 0.66 ± 0.18
158 | R465Y | 1.39 ± 0.062
159 | T130L | 1.13 ± 0.48
160 | E137M | 2.33 ± 0.18
161 | G150L | 1.3 ± 0.56
162 | E171Q | 1.15 ± 0.54
163 | A537I | 0.231 ± 0.063
164 | T72C | 0.562 ± 0.31
165 | P326A | 0.645 ± 0.45
166 | V214G | 0.556 ± 0.29
167 | T504S | 1.44 ± 0.18

Reference: the supplement of paper PMC12667976
